Results from article PMC5570165.

Test system: p19 N15K,G16R
Assay: BLI / MSD-SET
Conditions: 2'-OMe at select positions, BLI: citrate-phosphate buffer, 100 mM NaCl, 0.1% BSA, 0.002% Tween-20, 37 C (pH of the siRNA assay not stated), MSD-SET: PBS, 100 pM siRNA, 24 h …

“AACGCUGGGCGUUAAUCAATT / UUGAUUAACGCCCAGCGUUTT [Seq 7 siRNA]” was tested, and the binding signal (fold higher affinity than p19 (up to)) was 160.
